Source: US20170247418A1
Where two headings read alike, the source gives them in different places.

Experiments:
[1] = target: biotinylated eboIZN39IQ; test: SPR (ProteOn XPR36), eboC24 flowed over biotin-eboIZN39IQ, pH 5.8
[2] = target: biotinylated eboIZN39IQ

IEPHDWTKNITDKIDQIIHDFVDK (modifications not checked) [eboC24]
Kd [1]: 300 nM | Kd [2]: 310 nM
